Test results taken from publication PMC10866537.

What was measured:
[1] = biological target: mouse 4-1BB–Fc protein (mouse) (UniProt P20334); assay: SPR; BIAcore X100; siglec-4–Fc or m4-1BB–Fc amine-coupled to CM5; h4-1BB–HIS or m-siglec-4–HIS flowed at 18 to 3000 nM in HBS-EP (10 mM Hepes pH 7.4, 150 mM NaCl, 3 mM EDTA, 0.05% P20); fitted with a 1:2 binding model
4-1BBL (Homo sapiens) = 4-1BBL (Homo sapiens) (UniProt P41273); details: cited from earlier work
Sequence of 4-1BBL (Homo sapiens) (P41273 whole entry): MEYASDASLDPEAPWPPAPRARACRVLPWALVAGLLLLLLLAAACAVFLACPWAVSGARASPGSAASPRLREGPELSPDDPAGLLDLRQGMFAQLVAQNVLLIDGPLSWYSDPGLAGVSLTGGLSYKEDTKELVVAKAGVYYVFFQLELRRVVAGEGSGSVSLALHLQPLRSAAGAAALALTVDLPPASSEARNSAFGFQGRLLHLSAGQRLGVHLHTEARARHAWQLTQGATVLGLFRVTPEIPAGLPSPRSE

Sequence of mouse 4-1BB–Fc protein (mouse) (P20334 24-187): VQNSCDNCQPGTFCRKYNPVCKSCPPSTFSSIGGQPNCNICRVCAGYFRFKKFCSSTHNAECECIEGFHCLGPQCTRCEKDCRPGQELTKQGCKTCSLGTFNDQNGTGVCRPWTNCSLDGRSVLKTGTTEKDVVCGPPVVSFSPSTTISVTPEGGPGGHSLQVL
Sequence of 4-1BB (Q07011 24-255): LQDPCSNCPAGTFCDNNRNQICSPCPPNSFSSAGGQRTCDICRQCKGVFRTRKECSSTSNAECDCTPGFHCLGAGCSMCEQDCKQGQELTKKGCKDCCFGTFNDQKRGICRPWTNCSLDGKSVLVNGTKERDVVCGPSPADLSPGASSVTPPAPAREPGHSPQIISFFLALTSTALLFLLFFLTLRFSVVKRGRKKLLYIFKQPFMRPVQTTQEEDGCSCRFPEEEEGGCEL

Substance	Kd [1] [nM]	Kd (4-1BBL (Homo sapiens)) [nM]
mouse siglec-4–HIS protein (domain or fragment)	860	–
4-1BB (from UniProt Q07011)	–	85.6
